Drawing on US20210015870A1 (PROMAB BIOTECHNOLOGIES, published 2021), this text covers binding result and Kd for one molecule.

The target in experiment [1] is T1, CD18 protein fused with human Fc protein, expressed in transfected 293 cells (UniProt P05107 23-700, limits assumed).
T1 construct: Negative control for immunostaining; also called control CD18 protein; CD18-human Fc protein; not shown: human Fc
Nature of the experiment: immunostaining of transfected 293 cells. From the text:
We transfected 293 cells either with BCMA (CD269)-human Fc protein or control CD18 protein fused with human Fc protein and performed immunostaining analysis. […] By IHC, clone 4C8A bound to RPMI8226 cells, myeloma primary tumors and normal human liver, but not to any other normal or other type cancer human tissues, confirming the specificity of BCMA expression. BCMA antibody detected also BCMA in primary multiple myeloma tumors.

Experiment [2] deals with T2, BCMA peptide (BCMA extracellular domain protein with a C-terminal deletion of 37 residues) (human).
T2 construct: also called BCMA shorter peptide; shorter peptide from BCMA extracellular domain
T2 peptide: MLQMAGQCSQNEYFDSL
Nature of the experiment: ELISA, plate coated with BCMA peptide, HRP anti-mouse IgG and TMB, OD450. As for the experimental part:
We generated mouse monoclonal anti-human BCMA monoclonal antibody 4C8A using hybridoma. Dilutions of the antibody were incubated in ELISA plates coated with BCMA protein, or BCMA peptide (BCMA extracellular domain protein with a C-terminal deletion of 37 residues), or an irrelevant control CD363 protein. Binding of BCMA mAb 4C8A to the coated protein was detected with HRP-conjugated anti-mouse IgG and TMB substrate. […] The binding of BCMA to BCMA protein was in a dose-dependent manner: decreased with […] in contrast to negative controls (FIG. 4).
For orientation: In an ELISA, binding on a coated surface is turned into a signal by an enzyme label.

Experiment [3] concerns the target T3, BCMA protein (recombinant human BCMA) (human, UniProt Q02223 1-54).
T3 construct: also called BCMA antigen; BCMA recombinant protein
T3 sequence: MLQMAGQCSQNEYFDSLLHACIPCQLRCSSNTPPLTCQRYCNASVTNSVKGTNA
Nature of the experiment: BLItz biolayer interferometry, anti-mouse IgG biosensor, antibody at 100, 50 and 25 nM. The procedure:
The BCMA 4C8A antibody was diluted to 100, 50 and 25 nM and added to the anti-mouse IgG biosensor (ForteBio Corp., Menlo Park, Calif.). After 5 minutes, the biosensor was rinsed free of unbound antibody. Binding was monitored by the BLItz system (ForteBio), and the antibody's dissociation constant was determined with the BLItz software.
(BLI is a label-free optical method that tracks binding on a fibre tip over time.)

For orientation: Kd means the constant that tells how readily two partners part at equilibrium.

T1 sequence (P05107 23-700 limits assumed): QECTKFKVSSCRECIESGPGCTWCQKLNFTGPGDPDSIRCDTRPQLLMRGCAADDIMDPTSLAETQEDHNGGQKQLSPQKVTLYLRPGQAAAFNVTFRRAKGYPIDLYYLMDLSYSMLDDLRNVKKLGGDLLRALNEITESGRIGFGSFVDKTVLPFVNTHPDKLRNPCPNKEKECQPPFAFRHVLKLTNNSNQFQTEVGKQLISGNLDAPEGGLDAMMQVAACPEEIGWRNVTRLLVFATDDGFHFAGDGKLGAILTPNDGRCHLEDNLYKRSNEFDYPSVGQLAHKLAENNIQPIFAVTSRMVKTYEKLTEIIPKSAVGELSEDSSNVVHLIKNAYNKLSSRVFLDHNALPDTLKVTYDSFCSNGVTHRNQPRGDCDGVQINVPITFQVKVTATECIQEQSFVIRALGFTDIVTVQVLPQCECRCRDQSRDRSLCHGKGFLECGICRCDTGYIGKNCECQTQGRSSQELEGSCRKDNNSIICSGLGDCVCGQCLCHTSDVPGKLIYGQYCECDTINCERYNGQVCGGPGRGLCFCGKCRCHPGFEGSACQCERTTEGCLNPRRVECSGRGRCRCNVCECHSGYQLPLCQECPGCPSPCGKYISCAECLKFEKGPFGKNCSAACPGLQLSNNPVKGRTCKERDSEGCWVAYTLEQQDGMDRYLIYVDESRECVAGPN

B1: mouse monoclonal anti-human BCMA antibody clone 4C8A (antibody, mouse IgG1, V domains shown)
VH: VQLQQSGPELVKPGASVKMSCKASGYTFTSYVMHWVKQKPGQGLEWIGYIIPYNDATKYNEKFKGKATLTSDKSSSTAYMELSSLTSEDSAVYYCARYNYDGYFDVWGAGTTVTVSS
VL: DIVMTQSPATLSVTPGDRVSLSCRASQSISDYLHWYQQKSHESPRLLIKYASQSISGIPSRFSGSGSGSDFTLSINSVEPEDVGVYYCQNGHSFPPTFGGGTKLEIK
notes: also called BCMA mAb 4C8A; BCMA 4C8A antibody
Consider B1, for which the binding result in experiment [1] and in experiment [2] was “no binding” throughout. The Kd in experiment [3] is approximately 2.8 nM.
